This data set deals with His32 (UniProt position 32, AAQLPHDYCTT). Kind of data set: NMR. As to conditions: 20 °C; McIlvaine (phosphate-citrate) buffer with 2 mM DTT; Apo five-phospho 4E-BP2. The folded β-domain is populated at neutral pH and undergoes non-cooperative acid denaturation as pH is lowered.

“And” between values parts separate entries of the source, which are not always exact repeats. Identical values can stand only once.

In general, pKa refers to the negative logarithm of the acid dissociation constant. The low end stands for a group that gives up its proton readily, the high end for a group that holds its proton tightly.

For the substance “Eukaryotic translation initiation factor 4E-binding protein 2 (4E-BP2), five-phospho form (5p-4E-BP2) (Homo sapiens (inferred; species of the construct not explicitly stated))”, the pKa was 6.0 ± 0.2 and 5.9 ± 0.1 and 6.0 ± 0.3.
